Fold Activation of Latent TGF-β over Baseline (soft agar NRK colony formation) (fold over baseline) data for two substances are collected here from US6384189.

The target of this experiment is recombinant small latent TGF-β. Briefly: cell-based or functional assay.

Regarding “TSP stripped of TGF-β activity (sTSP) (from UniProt P07996 19-1170)”, the Fold Activation of Latent TGF-β over Baseline (soft agar NRK colony formation) (fold over baseline) is 2. As for RFK (SEQ ID NO:18) (peptide), the figure is 2.5.
